Measured values reported in US20260242478A1 (published 2026).
Where no end group is shown, it is not given here.

B1: Phage-1206 (peptide)
peptide: YCEGHSVEYILKCL
modifications: cysteine pairing not given here; also: displayed on phage by fusion to pIII, linker and pIII sequence not given here
B2: Phage-1207 (peptide)
peptide: YCEGHSSAYMRKCL
modifications: cysteine pairing not given here; also: displayed on phage by fusion to pIII, linker and pIII sequence not given here
B3: Phage-1221 (peptide)
peptide: YCEGHSAIYIAKCM
modifications: cysteine pairing not given here; also: displayed on phage by fusion to pIII, linker and pIII sequence not given here
notes: Tested as clonal phage supernatant
B4: Phage-1222 (peptide)
peptide: YCFGHFPEYMAKCL
modifications: cysteine pairing not given here; also: displayed on phage by fusion to pIII, linker and pIII sequence not given here
notes: as for B3
B5: Phage-1223 (peptide)
peptide: YCDGHTGMYISKCL
modifications: cysteine pairing not given here; also: displayed on phage by fusion to pIII, linker and pIII sequence not given here
notes: as for B3
B6: Phage-1224 (peptide)
peptide: YCSGHSWAYIGKCL
modifications: cysteine pairing not given here; also: displayed on phage by fusion to pIII, linker and pIII sequence not given here
notes: as for B3
B7: Phage-1225 (peptide)
peptide: YCAGHAAEYMWKCL
modifications: cysteine pairing not given here; also: displayed on phage by fusion to pIII, linker and pIII sequence not given here
notes: as for B3
B8: Phage-1226 (peptide)
peptide: YCQGHFPQYMAKCL
modifications: cysteine pairing not given here; also: displayed on phage by fusion to pIII, linker and pIII sequence not given here
notes: as for B3
B9: Phage-1227 (peptide)
peptide: YCEGHVPEYLVKCL
modifications: cysteine pairing not given here; also: displayed on phage by fusion to pIII, linker and pIII sequence not given here
notes: as for B3
B10: Phage-1228 (peptide)
peptide: YCDGHSKEYMSKCL
modifications: cysteine pairing not given here; also: displayed on phage by fusion to pIII, linker and pIII sequence not given here
notes: as for B3
B11: Phage-1229 (peptide)
peptide: YCDGHLPEYMLKCL
modifications: cysteine pairing not given here; also: displayed on phage by fusion to pIII, linker and pIII sequence not given here
notes: as for B3
B12: Phage-1230 (peptide)
peptide: YCAGHLDVYMSKCL
modifications: cysteine pairing not given here; also: displayed on phage by fusion to pIII, linker and pIII sequence not given here
notes: as for B3
B13: Phage-1231 (peptide)
peptide: YCAGHTPEYLDKCL
modifications: cysteine pairing not given here; also: displayed on phage by fusion to pIII, linker and pIII sequence not given here
notes: as for B3
B14: Phage-1232 (peptide)
peptide: YCEGHDIRYMMKCL
modifications: cysteine pairing not given here; also: displayed on phage by fusion to pIII, linker and pIII sequence not given here
notes: as for B3
B15: Phage-1233 (peptide)
peptide: YCDGHEERYMAKCL
modifications: cysteine pairing not given here; also: displayed on phage by fusion to pIII, linker and pIII sequence not given here
notes: as for B3
B16: Phage-1208 (peptide)
peptide: YCDGHLAEYIQKCL
notes: tested as crude clonal phage supernatant
B17: Phage-1209 (peptide)
peptide: YCAGHSSEYLQKCL
notes: as for B16
B18: Phage-1210 (peptide)
peptide: YCAGHSQVYMWKCL
notes: as for B16
B19: Phage-1211 (peptide)
peptide: YCEGHIEQYMRKCL
notes: as for B16
B20: Phage-1212 (peptide)
peptide: YCFGHAPEYLLKCL
notes: as for B16
B21: Phage-1213 (peptide)
peptide: YCEGHLREYMLKCL
notes: as for B16
B22: Phage-1214 (peptide)
peptide: YCEGHSSVYLWKCL
notes: as for B16
B23: Phage-1215 (peptide)
peptide: YCEGHSWIYIAKCL
notes: as for B16
B24: Phage-1216 (peptide)
peptide: YCDGHLEVYMSKCL
notes: as for B16
B25: Phage-1217 (peptide)
peptide: YCEGHRPEYMANCL
notes: as for B16
B26: Phage-1218 (peptide)
peptide: YCEGHIEPYMQKCL
notes: as for B16
B27: Phage-1219 (peptide)
peptide: YCDGHKPEYMDKCL
notes: as for B16
B28: Phage-1220 (peptide)
peptide: YCDGHVGAYMWKCL
notes: as for B16

biological target: T1, Anti-CD28 Fab (SEQ ID NOs: 696, 697); assay: phage ELISA; captured anti-CD28 Fab pre-incubated with CD28 antigen as competitor, anti-M13 HRP;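 note: crude clonal phage supernatants added without washing after CD28 pre-incubation, bound phage detected with HRP anti-M13 antibody, reference wells got blocking buffer lacking CD28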
T1 construct: In the phage ELISA the Fab was biotinylated and captured on neutravidin coated plates
T1 sequence (VH, as listed by the source, chain 1 of 2): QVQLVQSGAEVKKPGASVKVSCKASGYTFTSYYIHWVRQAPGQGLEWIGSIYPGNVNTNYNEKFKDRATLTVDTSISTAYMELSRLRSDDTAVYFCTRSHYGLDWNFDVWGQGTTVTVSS
T1 sequence (VL, as listed by the source, chain 2 of 2): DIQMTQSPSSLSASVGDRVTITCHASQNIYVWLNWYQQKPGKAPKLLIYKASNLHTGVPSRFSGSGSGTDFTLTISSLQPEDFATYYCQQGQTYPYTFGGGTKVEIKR
Experimental: (§1) After panning, phage infected bacteria were plated out and colonies picked into 96 well blocks. Clonal phage was then amplified and separated from bacterial cells via centrifugation.
(§2) Clonal phage were harvested as crude supematants and screened via standard ELISAs. […] Prior to the addition of clonal phage, wells were incubated with blocking buffer and CD28 antigen or blocking buffer alone. Without washing or aspirating, clonal phage supematants were then added to the wells and incubated for a short time. Wells were then washed followed by detection of bound phage using a horse radish conjugated anti-M13 antibody. Clonal phage of interest were then sent for sequence analysis.

Row | Binder | Anti-CD28 Fab signal in the presence of CD28 (phage binding ELISA)
1 | B1 | 0.06
2 | B2 | 0.06

biological target: T2, Anti-CD28 Fab (SEQ ID NOs: 696, 697); assay: phage binding ELISA on plate-captured anti-CD28 Fab pre-incubated with CD28 antigen as competitor
T2 construct: In the phage ELISA the Fab was biotinylated and captured on neutravidin coated plates
T2 sequence (VH, as listed by the source, chain 1 of 2): as the sequence (VH, as listed by the source, chain 1 of 2) above
T2 sequence (VL, as listed by the source, chain 2 of 2): as the sequence (VL, as listed by the source, chain 2 of 2) above
Experimental: as §1, §2

Row | Binder | Anti-CD28 Fab signal in the presence of CD28 (phage binding ELISA)
3 | B3 | 0.11
4 | B4 | 0.07
5 | B5 | 0.06
6 | B6 | 0.07
7 | B7 | 0.06
8 | B8 | 0.07
9 | B9 | 0.06
10 | B10 | 0.07
11 | B11 | 0.09
12 | B12 | 0.09
13 | B13 | 0.06
14 | B14 | 0.08
15 | B15 | 0.06

biological target: T3, Anti-CD28 Fab (SEQ ID NOs: 696, 697); assay: phage binding ELISA on captured anti-CD28 Fab; competitor: CD28 antigen at saturating concentration
T3 construct: Biotinylated and captured on neutravidin coated plates in the phage ELISA
T3 sequence (VH, as listed by the source, chain 1 of 2): as the sequence (VH, as listed by the source, chain 1 of 2) above
T3 sequence (VL, as listed by the source, chain 2 of 2): as the sequence (VL, as listed by the source, chain 2 of 2) above
Experimental: as §1, §2

Row | Binder | Anti-CD28 Fab signal in the presence of CD28
16 | B16 | 0.08
17 | B17 | 0.09
18 | B18 | 0.06
19 | B19 | 0.06
20 | B20 | 0.08
21 | B21 | 0.07
22 | B22 | 0.05
23 | B23 | 0.07
24 | B24 | 0.09
25 | B25 | 0.06
26 | B26 | 0.06
27 | B27 | 0.07
28 | B28 | 0.06

biological target: T1, Anti-CD28 Fab (SEQ ID NOs: 696, 697); assay: phage ELISA; biotinylated anti-CD28 Fab on neutravidin plate, clonal phage supernatant, anti-M13 HRP

Row | Binder | Anti-CD28 Fab signal (phage binding ELISA)
29 | B1 | 1.04
30 | B2 | 1.04

biological target: T4, Anti-CD28 Fab (SEQ ID NOs: 696, 697); assay: as above
T4 construct: Biotinylated and captured on neutravidin coated plates in the phage ELISA
T4 sequence (VH, as listed by the source, chain 1 of 2): as the sequence (VH, as listed by the source, chain 1 of 2) above
T4 sequence (VL, as listed by the source, chain 2 of 2): as the sequence (VL, as listed by the source, chain 2 of 2) above

Row | Binder | Anti-CD28 Fab signal (phage binding ELISA)
31 | YCSGHVPEYMEKCL [Phage-1234] | 0.94
32 | YCDGHIPQYVEKCL [Phage-1235] | 0.94
33 | YCAGHAEIYMQKCL [Phage-1236] | 0.93
34 | YCEGHAHEYMEKCV [Phage-1237] | 0.93
35 | YCDGHHAEYMWKCL [Phage-1238] | 0.93

biological target: T2, Anti-CD28 Fab (SEQ ID NOs: 696, 697); assay: phage binding ELISA; clonal phage on plate-captured biotinylated anti-CD28 Fab, anti-M13 HRP detection
Experimental: as §1, §2

Row | Binder | Anti-CD28 Fab signal (phage binding ELISA)
36 | B3 | 0.98
37 | B4 | 0.98
38 | B5 | 0.98
39 | B6 | 0.98
40 | B7 | 0.97
41 | B8 | 0.97
42 | B9 | 0.96
43 | B10 | 0.96
44 | B11 | 0.96
45 | B12 | 0.96
46 | B13 | 0.95
47 | B14 | 0.95
48 | B15 | 0.94

biological target: T3, Anti-CD28 Fab (SEQ ID NOs: 696, 697); assay: phage binding ELISA; biotinylated anti-CD28 Fab on neutravidin plate, bound phage detected with anti-M13 HRP;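 note: crude supernatants of clonal phage screened, wells pretreated with blocking buffer with or without CD28 antigen before brief phage incubation, washed, then bound phage detected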
Experimental: as §1, §2

Row | Binder | Anti-CD28 Fab signal
49 | B16 | 1.04
50 | B17 | 1.03
51 | B18 | 1.02
52 | B19 | 1.01
53 | B20 | 1.01
54 | B21 | 1.01
55 | B22 | 1
56 | B23 | 1
57 | B24 | 1
58 | B25 | 1
59 | B26 | 0.99
60 | B27 | 0.99
61 | B28 | 0.99

biological target: T4, Anti-CD28 Fab (SEQ ID NOs: 696, 697); assay: phage ELISA; Fab-coated wells first incubated with CD28 antigen (competitor), then clonal phage, anti-M13 HRP
Experimental: as §1, §2

Row | Binder | Anti-CD28 Fab signal in the presence of CD28 (phage binding ELISA)
62 | YCSGHVPEYMEKCL [Phage-1234] | 0.06
63 | YCDGHIPQYVEKCL [Phage-1235] | 0.08
64 | YCAGHAEIYMQKCL [Phage-1236] | 0.05
65 | YCEGHAHEYMEKCV [Phage-1237] | 0.07
66 | YCDGHHAEYMWKCL [Phage-1238] | 0.06
